Measurements: publication PMC13252954

Experiments:
[1] = target: PIΔC SVMP metalloproteinase (MP) domain (Echis ocellatus); assay: SEC
[2] = target: PII SVMP zymogen (Venom metalloprotease PII-SVMP EOC00006, Echis ocellatus) (Echis ocellatus); assay: SEC + other: non-reducing SDS-PAGE
[3] = target: integrin αIIbβ3 (human (endogenous in platelets)) (UniProt P08514)
UniProt P08514, sequence (P08514 32-1039, chain 1 of 2): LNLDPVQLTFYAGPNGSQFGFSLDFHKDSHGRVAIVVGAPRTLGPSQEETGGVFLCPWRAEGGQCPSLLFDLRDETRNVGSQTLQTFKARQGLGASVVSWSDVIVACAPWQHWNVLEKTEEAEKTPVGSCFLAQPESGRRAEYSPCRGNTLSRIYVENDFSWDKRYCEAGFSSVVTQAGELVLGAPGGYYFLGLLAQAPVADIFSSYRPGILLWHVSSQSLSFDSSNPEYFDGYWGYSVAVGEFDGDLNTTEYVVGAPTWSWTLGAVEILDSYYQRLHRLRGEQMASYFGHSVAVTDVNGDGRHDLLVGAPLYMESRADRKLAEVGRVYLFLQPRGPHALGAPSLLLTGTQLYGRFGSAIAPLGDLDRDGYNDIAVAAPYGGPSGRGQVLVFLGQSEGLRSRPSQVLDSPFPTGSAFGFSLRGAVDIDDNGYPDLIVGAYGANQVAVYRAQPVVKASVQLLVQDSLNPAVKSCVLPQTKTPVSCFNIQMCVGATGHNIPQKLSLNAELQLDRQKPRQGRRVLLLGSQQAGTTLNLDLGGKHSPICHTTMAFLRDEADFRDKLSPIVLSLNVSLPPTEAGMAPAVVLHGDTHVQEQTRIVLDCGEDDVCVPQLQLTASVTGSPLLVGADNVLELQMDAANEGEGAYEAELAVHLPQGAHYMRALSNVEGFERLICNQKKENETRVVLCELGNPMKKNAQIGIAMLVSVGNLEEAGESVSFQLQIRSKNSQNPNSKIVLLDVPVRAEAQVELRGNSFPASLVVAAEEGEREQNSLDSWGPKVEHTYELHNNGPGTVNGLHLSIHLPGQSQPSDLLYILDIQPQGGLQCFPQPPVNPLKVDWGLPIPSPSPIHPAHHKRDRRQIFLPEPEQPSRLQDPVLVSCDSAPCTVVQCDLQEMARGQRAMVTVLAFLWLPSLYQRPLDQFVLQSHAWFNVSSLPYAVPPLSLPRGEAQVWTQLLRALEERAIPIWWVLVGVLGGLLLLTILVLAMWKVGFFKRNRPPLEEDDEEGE
UniProt P08514, sequence (P05106 27-788, chain 2 of 2, further chain): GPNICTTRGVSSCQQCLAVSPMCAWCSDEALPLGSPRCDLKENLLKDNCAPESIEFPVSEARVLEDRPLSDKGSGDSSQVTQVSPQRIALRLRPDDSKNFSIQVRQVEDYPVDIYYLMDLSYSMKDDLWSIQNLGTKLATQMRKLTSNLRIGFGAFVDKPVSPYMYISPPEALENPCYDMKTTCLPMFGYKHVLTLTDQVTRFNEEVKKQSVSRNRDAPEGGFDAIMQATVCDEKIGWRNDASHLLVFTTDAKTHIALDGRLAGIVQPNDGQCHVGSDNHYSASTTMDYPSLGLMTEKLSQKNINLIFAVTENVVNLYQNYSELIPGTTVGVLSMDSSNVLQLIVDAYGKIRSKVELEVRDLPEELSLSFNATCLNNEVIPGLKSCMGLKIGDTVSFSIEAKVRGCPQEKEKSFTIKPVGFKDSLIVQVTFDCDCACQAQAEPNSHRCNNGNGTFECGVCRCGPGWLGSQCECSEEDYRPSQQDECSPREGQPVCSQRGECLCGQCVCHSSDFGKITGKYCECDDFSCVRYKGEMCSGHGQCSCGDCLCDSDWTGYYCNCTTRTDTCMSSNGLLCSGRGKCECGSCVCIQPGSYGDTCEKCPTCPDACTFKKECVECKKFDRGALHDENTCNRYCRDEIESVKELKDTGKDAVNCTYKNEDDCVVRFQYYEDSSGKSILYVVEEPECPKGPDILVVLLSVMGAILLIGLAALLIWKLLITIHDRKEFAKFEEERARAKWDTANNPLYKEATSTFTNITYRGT

Substance PI SVMP prodomain (domain or fragment) has a stoichiometry N [1] of 1.

Substance “PII SVMP zymogen (Venom metalloprotease PII-SVMP EOC00006, Echis ocellatus) (from UniProt A0A3G1E3U2 1-494) (enzyme)” has a stoichiometry N [2] of 2.

With activated PII SVMP (enzyme) the 2-MeS-ADP-induced platelet aggregation in human platelet-rich plasma (plate aggregometry), % aggregation at 500 nM SVMP (% aggregation) [3] was 12.
